39 molecules from article PMC9170038, “Crowdsourced RNA design discovers diverse, reversible, efficient, self-contained molecular switches” can be followed below.

B1: Eterna 7625640 (Exclusion - Theophylline B) (ssRNA)
RNA: UAUAUUGUGAUGGAUACCAGCAGAGAAAACGUUUAUCCUAACAUGAGGAUCACCCAUGUAUGCCCUUGGCAGCUGUUGUGGUAUA
B2: Eterna 6388885 (Inverted Exclusion NG 1) (ssRNA)
RNA: UUAUUUUUACAGAAGGUUUAAUAAUAUGUAUGAGAAGGAUAUGUAACAUGAGGAUCACCCAUGUUUUAUUUAUAUGAGGAUCAU
B3: Eterna 7754737 (Exclusion - Tryptophan A) (ssRNA)
RNA: CGCUUUGCGUCCGGUAGUGAUGUUACCAAGCGAGGACCGGUACGGCCGCCACUCGAGUGACAGACGUACUGGUAUCACCCGCUUU
B4: Eterna 6122884 (Exclusion NG 3) (ssRNA)
RNA: CGAUAACAUAGUUAUCCGUAACGGACAUGAGGAUCACCCAUGUAGGAUAUGUUACUAAACUAGUAACAGAAGGACAUGAGUCUU
B5: Eterna 6391458 (Small Loop Exclusion NG 1) (ssRNA)
RNA: ACAUGUUUUGUAGGAUAUCACUAGUUGUGUUAUAUAUUUGUUAUAAUGUAUUGAGAAGGACAUUUACAUGAGGAUCACCCAUGU
B6: Eterna 7748347 (Exclusion - Theophylline B) (ssRNA)
RNA: UUUUAGGUAUCUGAUACCAGAGAAAAUAUAUGUAGUGAUGUUAUAUACAAAAUAAUUAAGCUCCCUUGGCAGCAGUUUUAAUUUU
B7: Eterna 5982822 (Brourd's mod of Exclusion 4) (ssRNA)
RNA: GGAUCGAAUGUGAGGAUAUGCUGGUCCUUGGAUCAGCAGAAGGCACAUGAGGAUCACCCAUGUGGUAACGGUCC
B8: Eterna 7612252 (Exclusion - Arginine B) (ssRNA)
RNA: ACGUAAUGCAGAAGGAGCGUCUGAUUUUAACAUGAGGAUCACCCAUGUAAUAUUUAUGGUAGACAGGUAGGUCGCUGAAGUACGA
B9: Eterna 5859795 (Exclusion NG 3) (ssRNA)
RNA: ACAUGAGGAUCACCCAUGUAAUGAAGGGUACUAUACUAAACGUAGGAUAUCGAUGUAAGAUUGUACGAGAAGGACGAUUGCCUU
B10: Eterna 1103 (Exclusion - Theophylline A) (ssRNA)
RNA: AGUGACGAGUGAUGUUCGUGAACACUGGAUACCAGCAGUCUUAUCUGCCCUUGGCAGCCAACGGGAACCGAAUGUUAAGACCUGU
B11: Eterna 13817 (Sensor v3, turn-off variant 2) (ssRNA)
RNA: UGUACUAUGCGUGCUGACAUGCGUAGUGCAGCAGGUGUAACAUGAGGAUCACCCAUGUCCUCAUUUGCUCGUCUUAA
B12: Eterna 7769703 (Exclusion - Tryptophan A) (ssRNA)
RNA: AAACAUCACUGGGAGUGAUGUUCUCAGUGACGAGGACCGGUACGGCCGCCACUCGCGAGAGAACUAGUCUAGACUUGACUGCAUU
B13: Eterna 6433253 (Small Loop Same State NG 3) (ssRNA)
RNA: CGUUUAUAUAUGGGUUUAUAUUAUGAGGAUAUCAAUAUUUAAUACAUGAGGAUCACCCAUGUUACUGAGAAGGCAUAAUUAACG
B14: Eterna 6113948 (Same State NG 3) (ssRNA)
RNA: UGUUGUGAACAGAACAUGAGGAUCACCCAUGUGCACUCGUGUAAGGAUAUACAAUCGUAUGGAAAGUAGAAGGUACUAAUUAUG
B15: Eterna 7616965 (Same State - Arginine A) (ssRNA)
RNA: UACAUGAGGAUCACCCAUGUAUGUAUCGAAGGAGCGCGUGUAAACGCAGGUAGGUCGCGAACAUGAGGAUCACACAUGAGGAUCA
B16: Eterna 10350 (Sensor for hsa-mir-208a) (ssRNA)
RNA: GCCCAUAGUAUAUGGAUACAAGCUUUUUGACAUGAGGAUCACCCAUGUACUCGUCUUAUGUGCAGUCCGUAGACUGC
B17: Eterna 15548 (Exclusion 2) (ssRNA)
RNA: GUGUAGAUAGGAUAUGCUUUGAGCUUAUGAGAGUAUGCUCGACAUGAGGAUCACCCAUGUAGAAGGGUUUACAC
B18: Eterna 7708488 (Same State - Arginine A) (ssRNA)
RNA: UAUACGAAGCAGUGAUGUUGCUUAUGAGAAGGAGCGCACGAAAGUGCAGGUAGGUCGCUCAGCCAUGUGGACGAAAACGUCCACA
B19: Eterna 5860431 (Same State NG 1) (ssRNA)
RNA: UAAUGUUAGCGAGGAUAUCGUUUAUUGAAGUUACGAGAAGGCGCUCUUCUUACAUGAGGAUCACCCAUGUCUGUUUUGCAUGAU
B20: Eterna 11304 (Exclusion 2) (ssRNA)
RNA: UCGGCGCGAGGAUAUACGGUUGCUUGGUAGGGUCGUGGCGUACAUGAGGAUCACCCAUGUAGAAGGCGCGCCGC
B21: Eterna 7678688 (Same State - Tryptophan A) (ssRNA)
RNA: AACACUCUGGGAGUGAUGUUCUCAAAUAACCGAGGACCGGUACGGCCGCCACUCGGAAAAGAGUGAGUCCUACGAAAAGUAGGAC
B22: Eterna 7691660 (Exclusion - Tryptophan B) (ssRNA)
RNA: AGAUUCGACACGGCCGCCACUUGUGGUGGAUUAUCCUAUGUAAGACAUGAGUGAUGUUCAUGUACAAGGACCGGGUGUUGAGUCU
B23: Eterna 6056021 (Exclusion 3) (ssRNA)
RNA: GGGCCCGGAGGAUAUACAUGAGGAUCACCCAUGUAGGGCCCGGGUAUUCCCGGGUUUUGUAGAAGGCCGGGCCC
B24: Eterna 7689816 (Same State - Arginine A) (ssRNA)
RNA: GCGAACAUUCGCAGUGAUGUUGCGACGGAAGGAGCGCGUGAAAACGCAGGUAGGUCGCCGACAUACUUAAUUUUACAGUGUUCGC
B25: Eterna 6436678 (Exclusion NG 2) (ssRNA)
RNA: AAAUUAAGAAGAGGAUAUUGACAUGAGGAUCACCCAUGUAUUUGGGAGUGUUUACUGAAUUCUUACGAGAAGGCUUACGAACUU
B26: Eterna 6445724 (Inverted Small Loop Same State NG 1) (ssRNA)
RNA: AACCUAAAACAGAAGGCCAGCUACAUGAGGAUCACCCAUGUCGAAUCAUGGAGGAUAUGUUGUAAUUUACUCGCAGAUGAGUGC
B27: Eterna 7653720 (Same State - Theophylline B) (ssRNA)
RNA: UGUAUGUGAUUUGAUACCAGACCAGCUGGUGGUACCUGAGGAACACCCAGGUAGGUUUGGGUCCCUUGGCAGCAAAUCGCAUACU
B28: Eterna 7641374 (Exclusion - Arginine A) (ssRNA)
RNA: GACAUGAGGAUCACCCAUGUUUUCUAUGAAGGAGCGUCGGAAAUGACAGGUAGGUCGCAUGGUAGGACUUGUAUCUUGUAUGUAG
B29: Eterna 7728774 (Exclusion - Theophylline A) (ssRNA)
RNA: AUCACAGUGAUGUUGUGAUAUGAUUCAGAUACCAGACUAGUGCUAGUCCCUUGGCAGCUGAACUCAGCAGCACCACUAGCACUCU
B30: Eterna 5987116 (Exclusion 5) (ssRNA)
RNA: UUAGGAUCAGGAUAUGAUGUUUUAAACAUGAGGAUCACCCAUGUAGAUCCUGAUUCAACAUCAGAAGGGAUAAUUU
B31: Eterna 1109 (Exclusion - Theophylline A) (ssRNA)
RNA: UCGGCGGAGUGAUGUUCCUAUGUCCAAGAUACCAGUCUAUGAACGGACCCUUGGCAGCUUCCAUUAGGUUACUAUUUAGACUCAU
B32: Eterna 7697880 (Same State - Tryptophan B) (ssRNA)
RNA: AACAGCAAUGCGGCCGCCACUUCGAGGUCAGUGAUGUUGACAGAAUUAAAUAAAGAUCCCAAGAGGAGGACCGGGCAGUGCUGUU
B33: Eterna 1281 (Exclusion - Tryptophan B) (ssRNA)
RNA: GAGAAUCUCACGGCCGCCACUCACCUGUUAAUUGACAUCGACGGCCUCGACCAGUGAUGUUGUGUGAGGACCGGGUGUCUCGUGU
B34: Eterna 6124659 (Same State NG 3) (ssRNA)
RNA: GAAUAUUCGUUGAACAUGAGGAUCACCCAUGUAACUUGACAUGAGGAUAUGGAUUCUAAUUGGAUCCAGAAGGUAUGAAUAUUC
B35: Eterna 6444393 (Inverted Same State NG 3) (ssRNA)
RNA: UGUUUUGUACAUGAGGAUCACCCAUGUUAAUAUGUGGUAGUCAGAAGGCAUUGUUUGAGAUAUUAUGAGGAUAUGAUUAGUCUG
B36: Eterna 7619949 (Exclusion - Theophylline A) (ssRNA)
RNA: CGCAACCCUAAGGGAUUGUGGUUAUUAGAUACCAGUAUGAUGCAAUACCCUUGGCAGCUAAUACAUGAGGAUCACCCAUGUUGCG
B37: Eterna 7727526 (Same State - Tryptophan A) (ssRNA)
RNA: GACGGGCAGUGAUGUUGCCGGUCUCUUGGACGAGGACCGGUACGGCCGCCACUCGAUCUGAUGCGAGAAUUGUAUCUUUUAAUAA
B38: Eterna 7688897 (Exclusion - Tryptophan B) (ssRNA)
RNA: ACGAUCAUGUCGGCCGCCACUGAGAGUAGUGAUGUUACUUUUAUGUUUUAGUUAUAAUAUUUGAACAGGACCGGGACAUGUUCGU
B39: Eterna 7684651 (Exclusion - Tryptophan A) (ssRNA)
RNA: AACUUAAUUUAUAAGCAGUGAUGUUGCUCACGAGGACCGGUACGGCCGCCACUCGAUCGGACUUAGGUCUUCAAUUAUUUCAUUA

The target of the data set is MS2 coat protein, dlFG mutant (Escherichia phage MS2, UniProt P03612, del68-81insG). Put plainly: 4 mM Mg2+; no ligand; RNA-MaP array; 100 mM Tris-HCl pH 7.5, 80 mM KCl, 4 mM MgCl2, 0.1 mg/mL BSA, 1 mM DTT, 0.01 mg/mL yeast tRNA, 0.01% Tween-20; protein 1.5 nM to 3 uM; 37 C (Table S3). Conditions: chain copies: 2; label: tethered by stalled RNA polymerase.
As for B1, the Kd is 44.2 nM. This counts as double-digit nanomolar.

B2 registered a dissociation constant Kd of 10.7 nM. With B3 the figure was more than 3000 nM; with B4, 37.2 nM. With B5 the figure was 8.7 nM; with B6, more than 3000 nM. To B7 belongs 233 nM; to B8, 15.4 nM; to B9, 45.5 nM. In the case of B10, the dissociation constant (Kd) was more than 3000 nM. To B11 belongs 386 nM; to B12, more than 3000 nM; to B13, 12.1 nM. To B14 belongs 133 nM; to B15, 24.5 nM. Molecule B16 came in with a Kd of 27.2 nM. With B17, the affinity, expressed as Kd, was 88.3 nM.

Molecule B18 registered a Kd of more than 3000 nM.

B19 gave a Kd of 68.7 nM. To B20 belongs 17.3 nM; to B21, more than 3000 nM. To B22 belongs more than 3000 nM. B23: the dissociation constant Kd turned out to be 15 nM. In other words, the double-digit nanomolar range. With B24 the figure was more than 3000 nM. To B25 belongs 223 nM; to B26, 35.5 nM; to B27, 35.5 nM. For the molecule B28, the affinity, expressed as Kd, was 14.5 nM. Against the preceding molecule, the Kd is about 2.4-fold lower. B29: the equilibrium dissociation constant (Kd) was more than 3000 nM. Take B30: the Kd was determined as 15.1 nM. For B31, the dissociation constant Kd was more than 3000 nM. For the molecule B32, the dissociation constant Kd is more than 3000 nM. To B33 belongs more than 3000 nM; to B34, 75.8 nM. With B35 the figure was 60.6 nM; with B36, 13.8 nM; with B37, more than 3000 nM. On to B38, for which the Kd is more than 3000 nM. Molecule B39 displayed a dissociation constant Kd of more than 3000 nM.

The Kd is a measure of binding affinity in units of concentration.
